Values belong to the molecule of their own block, whether it stands above or below them.
Assays:
[1] = target: hMN-14×734 (Fab×Fab) bi-specific antibody; experiment: SE-HPLC shift with WI2 after incubation of radioiodinated bsAb in human serum at 37° C.
[2] = target: Ac-Lys(DTPA)-Tyr-Lys(DTPA)-Lys(Tscg-Cys)-NH2 (IMP 192); experiment: calculated from biodistribution in GW-39 tumor-bearing nude mice, 24 h after peptide, assuming one peptide bound to one bsAb
[3] = target: Ac-Lys(DTPA)-Tyr-Lys(DTPA)-Lys(Tscg-Cys)-NH2 (IMP 192); experiment: calculated from biodistribution in GW-39 tumor-bearing nude mice, 30 min after peptide, assuming one peptide bound to one bsAb
[4] = target: carcinoembryonic antigen (CEA) (UniProt P06731); experiment: analytical size exclusion HPLC, radioiodinated bsAb with 10-20× molar excess of CEA
[5] = target: Ac-Lys(DTPA)-Tyr-Lys(DTPA)-Lys(Tscg-Cys)-NH2 (IMP 192); experiment: calculated from biodistribution in GW-39 tumor-bearing nude mice, 1 h after peptide, assuming one peptide bound to one bsAb
[6] = target: Ac-Lys(DTPA)-Tyr-Lys(DTPA)-Lys(Tscg-Cys)-NH2 (IMP 192); experiment: calculated from biodistribution in GW-39 tumor-bearing nude mice, 3 h after peptide, assuming one peptide bound to one bsAb
[7] = target: DOTA-Phe-Lys(HSG)-D-Tyr-Lys(HSG)-NH2 (IMP 241); experiment: in vivo pretargeting, GW-39 tumor-bearing nude mice, 3 h after 111In-IMP-241
[8] = target: peptide containing a single HSG substituent and a thiol; experiment: BIAcore, CM-5 chip derivatised with the mono HSG peptide
[9] = target: carcinoembryonic antigen (CEA) (UniProt P06731); experiment: SE-HPLC, 125I-labeled bsMAb with an excess of CEA
[10] = target: carcinoembryonic antigen (CEA) (UniProt P06731); experiment: immunoreactivity test of 99mTc-hMN-14 Fab′, method and antigen not stated

carcinoembryonic antigen (CEA), sequence (P06731 35-685 limits assumed): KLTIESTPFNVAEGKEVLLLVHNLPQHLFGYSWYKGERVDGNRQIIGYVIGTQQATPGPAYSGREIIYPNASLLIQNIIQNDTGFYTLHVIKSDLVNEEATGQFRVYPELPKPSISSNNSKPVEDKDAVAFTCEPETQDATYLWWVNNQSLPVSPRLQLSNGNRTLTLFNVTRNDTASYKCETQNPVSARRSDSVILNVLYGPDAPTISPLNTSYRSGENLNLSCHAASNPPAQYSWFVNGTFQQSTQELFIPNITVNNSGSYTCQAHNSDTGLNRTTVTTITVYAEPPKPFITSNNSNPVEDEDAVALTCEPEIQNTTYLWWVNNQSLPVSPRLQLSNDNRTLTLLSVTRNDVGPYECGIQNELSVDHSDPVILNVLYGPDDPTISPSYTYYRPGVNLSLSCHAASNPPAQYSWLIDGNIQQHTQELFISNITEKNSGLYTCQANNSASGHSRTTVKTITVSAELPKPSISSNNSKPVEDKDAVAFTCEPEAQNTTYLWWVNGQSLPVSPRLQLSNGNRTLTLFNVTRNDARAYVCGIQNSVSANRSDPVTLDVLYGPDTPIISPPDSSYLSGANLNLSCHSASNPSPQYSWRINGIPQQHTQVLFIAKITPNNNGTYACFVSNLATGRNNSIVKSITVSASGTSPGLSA

Molecule: hMN-14×734 (Fab×Fab) bi-specific antibody (bispecific antibody)
% saturation on hMN-14 × 734 (available DTPA binding sites on the tumor bound bsAb filled with 99m-Tc-IMP-192) [2]: 28% | % saturation on hMN-14 × 734 (available DTPA binding sites on the tumor bound bsAb filled with 99m-Tc-IMP-192) [3]: 25.4% | percent of bsAb bound [4]: 90% | % saturation on hMN-14 × 734 (available DTPA binding sites on the tumor bound bsAb filled with 99m-Tc-IMP-192) [5]: 25.8% | % saturation on hMN-14 × 734 (available DTPA binding sites on the tumor bound bsAb filled with 99m-Tc-IMP-192) [6]: 25%

Molecule: hMN-14×m679 F(ab′)2 bsMAb (bispecific antibody)
ratio of the % ID/g of the peptide compared to the bsMAb in the tumor [7]: 3.9 | Kd [8]: 1.5 nM | percent of radiolabeled product shifting to a higher molecular weight [9]: > 90%

Next, values leading:

% loss of binding capacity to WI2 after 48 h in serum [1]: 3 to 5%
Molecule: WI2 (rat anti-MN-14 idiotypic antibody)

immunoreactive fraction [10]: 92%
B1: 99mTc-hMN-14 Fab′ (humanized MN-14 Fab′-SH) (Fab, INN chains, looked up, V domains shown)
VH: EVQLVESGGGVVQPGRSLRLSCSASGFDFTTYWMSWVRQAPGKGLEWIGEIHPDSSTINYAPSLKDRFTISRDNAKNTLFLQMDSLRPEDTGVYFCASLYFGFPWFAYWGQGTPVTVSS
VL: DIQLTQSPSSLSASVGDRVTITCKASQDVGTSVAWYQQKPGKAPKLLIYWTSTRHTGVPSRFSGSGSGTDFTFTISSLQPEDIATYYCQQYSLYRSFGQGTKVEIK
modifications: Fab' 99mTc label

Reference: US20060034759A1
